Reference: US20100098630A1, “Phenazine and Quinoxaline Substituted Amino Acids and Polypeptides” (AMBRX, INC., priority 2006, published 2010)

Target: T1, GH receptor-producing cells (Homo sapiens, UniProt P10912)
T1 sequence (P10912 19-638): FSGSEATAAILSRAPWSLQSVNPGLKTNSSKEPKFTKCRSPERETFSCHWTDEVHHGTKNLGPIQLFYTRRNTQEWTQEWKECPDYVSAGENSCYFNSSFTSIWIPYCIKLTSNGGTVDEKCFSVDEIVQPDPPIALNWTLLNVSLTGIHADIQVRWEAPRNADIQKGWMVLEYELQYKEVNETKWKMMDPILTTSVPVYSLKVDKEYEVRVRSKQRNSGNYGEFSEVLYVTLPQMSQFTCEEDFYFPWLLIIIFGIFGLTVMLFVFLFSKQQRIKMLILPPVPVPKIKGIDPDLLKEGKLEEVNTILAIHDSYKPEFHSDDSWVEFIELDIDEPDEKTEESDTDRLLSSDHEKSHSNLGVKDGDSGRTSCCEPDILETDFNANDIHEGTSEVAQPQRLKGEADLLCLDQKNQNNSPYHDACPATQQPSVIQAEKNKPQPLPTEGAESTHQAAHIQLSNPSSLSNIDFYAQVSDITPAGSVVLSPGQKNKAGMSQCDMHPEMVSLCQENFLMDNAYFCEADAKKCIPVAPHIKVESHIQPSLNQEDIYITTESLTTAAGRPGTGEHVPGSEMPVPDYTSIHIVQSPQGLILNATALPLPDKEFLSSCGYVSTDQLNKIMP
Assay: Cell binding assays (competition with 125I-GH)
Details: unlabeled competitor, 0° C., 90 minutes
Protocol: Cells are then resuspended and layered over 200 μl ice cold FCS in a 350 μl plastic centrifuge tube and centrifuged (1000 g; […]). The pellet is collected by cutting off the end of the tube and pellet and supernatant counted separately in a gamma counter (Packard).
Specific binding (cpm) is determined as total binding in the absence of a competitor (mean of duplicates) minus binding (cpm) in the presence of 100-fold excess of unlabeled GH (non-specific binding). The non-specific binding is measured for each of the cell types used.

GM-CSF: granulocyte-macrophage colony stimulating factor, negative control
inhibition of 125I-GH binding: not
